The results in this text go back to PMC11784390, “Conformational changes in and translocation of small proteins: insights into the ejection mechanism of podophages” (Journal of Virology, 2024).

The labels stand for the following.
T1: nozzle protein gp12 (bacteriophage T7, UniProt P03747 1-794)
T1 construct: nozzle protein gp12 of bacteriophage T7, as it stands in the virion; Native virion protein; also called tail nozzle; source: T7 virions propagated in E. coli, purified (PEG precipitation, CsCl ultracentrifugation)
T1 sequence (looked up): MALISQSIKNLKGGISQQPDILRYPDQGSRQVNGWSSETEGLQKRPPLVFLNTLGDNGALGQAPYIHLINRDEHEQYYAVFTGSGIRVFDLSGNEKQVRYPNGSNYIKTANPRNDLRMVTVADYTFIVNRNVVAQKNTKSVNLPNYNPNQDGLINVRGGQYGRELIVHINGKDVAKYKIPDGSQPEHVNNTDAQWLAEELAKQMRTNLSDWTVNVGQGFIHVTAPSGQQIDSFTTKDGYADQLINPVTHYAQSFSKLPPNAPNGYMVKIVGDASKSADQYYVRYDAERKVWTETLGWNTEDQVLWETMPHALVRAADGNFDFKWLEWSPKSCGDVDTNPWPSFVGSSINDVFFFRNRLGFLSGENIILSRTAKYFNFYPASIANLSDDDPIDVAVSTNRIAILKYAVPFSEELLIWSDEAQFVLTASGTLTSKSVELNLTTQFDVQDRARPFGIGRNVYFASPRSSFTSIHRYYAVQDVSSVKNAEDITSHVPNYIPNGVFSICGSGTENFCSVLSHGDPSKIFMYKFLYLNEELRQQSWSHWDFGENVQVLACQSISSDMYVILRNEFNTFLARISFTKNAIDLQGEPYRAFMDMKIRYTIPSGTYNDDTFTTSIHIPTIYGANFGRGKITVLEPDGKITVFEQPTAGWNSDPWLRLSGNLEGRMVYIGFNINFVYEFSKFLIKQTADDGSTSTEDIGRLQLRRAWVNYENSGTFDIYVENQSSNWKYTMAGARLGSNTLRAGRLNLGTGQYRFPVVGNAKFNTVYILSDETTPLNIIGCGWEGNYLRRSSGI

T2: portal protein gp8 (bacteriophage T7, UniProt P03728 1-536)
T2 construct: portal protein gp8 of bacteriophage T7, as it stands in the virion; Native virion protein; also called dodecameric portal; source: T7 virions propagated in E. coli, purified (PEG precipitation, CsCl ultracentrifugation); copies: 12
T2 sequence (looked up): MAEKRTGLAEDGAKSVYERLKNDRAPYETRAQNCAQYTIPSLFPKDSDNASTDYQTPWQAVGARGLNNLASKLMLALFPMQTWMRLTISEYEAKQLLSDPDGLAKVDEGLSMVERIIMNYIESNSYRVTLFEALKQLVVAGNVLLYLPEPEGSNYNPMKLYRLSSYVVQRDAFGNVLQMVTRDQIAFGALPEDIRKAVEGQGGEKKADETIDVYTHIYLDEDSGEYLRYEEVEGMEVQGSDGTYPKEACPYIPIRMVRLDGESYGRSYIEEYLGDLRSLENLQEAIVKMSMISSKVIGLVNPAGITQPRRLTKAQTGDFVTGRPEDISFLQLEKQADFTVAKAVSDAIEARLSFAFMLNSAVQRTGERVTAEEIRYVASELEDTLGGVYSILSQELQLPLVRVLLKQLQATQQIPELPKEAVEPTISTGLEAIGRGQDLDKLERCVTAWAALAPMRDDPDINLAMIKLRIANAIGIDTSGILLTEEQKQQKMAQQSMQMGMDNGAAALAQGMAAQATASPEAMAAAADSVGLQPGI

T3: core protein gp14 (bacteriophage T7, UniProt P03724 1-196)
T3 construct: core protein gp14 of bacteriophage T7, 196 residues as printed; modelled residues 4-86 and 101-129 in mature T7, 25-143 in DNA-ejected T7; Eight copies resolved in the mature virion, six copies in the extended channel of DNA-ejected T7; source: T7 virions propagated in E. coli, purified (PEG precipitation, CsCl ultracentrifugation)
T3 sequence (looked up): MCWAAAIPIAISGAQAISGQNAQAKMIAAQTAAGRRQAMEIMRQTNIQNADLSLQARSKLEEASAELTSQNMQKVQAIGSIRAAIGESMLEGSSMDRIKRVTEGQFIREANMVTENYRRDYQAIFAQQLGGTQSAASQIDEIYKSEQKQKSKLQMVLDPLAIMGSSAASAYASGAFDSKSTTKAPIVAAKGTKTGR

T4: core protein gp16 (bacteriophage T7, UniProt P03726 1-1318)
T4 construct: core protein gp16 of bacteriophage T7, as it stands in the mature virion; Four-fold ring in the core of mature T7; source: T7 virions propagated in E. coli, purified (PEG precipitation, CsCl ultracentrifugation)
T4 sequence (looked up): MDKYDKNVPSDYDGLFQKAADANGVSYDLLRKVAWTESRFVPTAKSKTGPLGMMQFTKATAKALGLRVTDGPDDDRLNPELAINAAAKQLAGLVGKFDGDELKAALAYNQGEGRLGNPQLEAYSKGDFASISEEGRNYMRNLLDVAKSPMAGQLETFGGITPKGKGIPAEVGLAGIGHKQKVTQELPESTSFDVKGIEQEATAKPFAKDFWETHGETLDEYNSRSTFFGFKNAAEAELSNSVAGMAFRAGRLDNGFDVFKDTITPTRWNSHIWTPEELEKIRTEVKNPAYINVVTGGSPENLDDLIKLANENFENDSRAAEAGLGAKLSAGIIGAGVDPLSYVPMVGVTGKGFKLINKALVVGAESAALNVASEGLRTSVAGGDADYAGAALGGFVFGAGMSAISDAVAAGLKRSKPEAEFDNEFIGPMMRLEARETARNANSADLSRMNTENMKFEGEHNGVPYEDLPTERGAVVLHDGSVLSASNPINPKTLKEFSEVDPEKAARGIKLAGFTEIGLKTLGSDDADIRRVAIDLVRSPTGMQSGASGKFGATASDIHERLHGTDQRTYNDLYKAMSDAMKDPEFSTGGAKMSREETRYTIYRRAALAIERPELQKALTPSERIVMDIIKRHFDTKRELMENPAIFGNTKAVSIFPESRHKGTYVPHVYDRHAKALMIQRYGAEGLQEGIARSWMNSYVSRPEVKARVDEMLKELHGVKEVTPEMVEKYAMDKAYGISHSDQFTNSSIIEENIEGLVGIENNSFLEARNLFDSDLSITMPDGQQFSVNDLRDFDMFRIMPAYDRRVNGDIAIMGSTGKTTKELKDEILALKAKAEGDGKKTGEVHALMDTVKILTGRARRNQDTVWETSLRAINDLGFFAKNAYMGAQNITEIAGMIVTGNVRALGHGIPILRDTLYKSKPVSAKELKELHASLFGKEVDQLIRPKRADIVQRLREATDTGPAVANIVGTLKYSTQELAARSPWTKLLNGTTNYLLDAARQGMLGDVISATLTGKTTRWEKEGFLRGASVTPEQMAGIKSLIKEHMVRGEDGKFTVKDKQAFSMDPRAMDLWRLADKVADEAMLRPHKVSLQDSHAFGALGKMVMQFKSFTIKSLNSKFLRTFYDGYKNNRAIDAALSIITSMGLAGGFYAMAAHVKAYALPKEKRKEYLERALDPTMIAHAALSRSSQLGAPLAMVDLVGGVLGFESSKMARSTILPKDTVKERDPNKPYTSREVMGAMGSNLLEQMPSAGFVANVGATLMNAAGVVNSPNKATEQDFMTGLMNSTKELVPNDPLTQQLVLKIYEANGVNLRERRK

B1: small protein gp6.7 (natural protein, bacteriophage T7, UniProt P03801 1-88, looked up)
chain: MCFSPKIKTPKMDTNQIRAVEPAPLTQEVSSVEFGGSSDETDTEGTEVSGRKGLKVERDDSVAKSKASGNGSARMKSSIRKSAFGGKK
notes: gp6.7 of bacteriophage T7, 88 residues as printed; modelled loop I (2-15) and loop II (34-50) in mature T7, conformer A 11-41 and conformer B 11-59 in DNA-ejected T7; Twelve copies in the mature virion and in the extended channel of DNA-ejected T7; also called core protein gp6.7; source: T7 virions propagated in E. coli, purified (PEG precipitation, CsCl ultracentrifugation)
B2: core protein gp15 (natural protein, bacteriophage T7, UniProt P03725 1-747, looked up)
chain: MSKIESALQAAQPGLSRLRGGAGGMGYRAATTQAEQPRSSLLDTIGRFAKAGADMYTAKEQRARDLADERSNEIIRKLTPEQRREALNNGTLLYQDDPYAMEALRVKTGRNAAYLVDDDVMQKIKEGVFRTREEMEEYRHSRLQEGAKVYAEQFGIDPEDVDYQRGFNGDITERNISLYGAHDNFLSQQAQKGAIMNSRVELNGVLQDPDMLRRPDSADFFEKYIDNGLVTGAIPSDAQATQLISQAFSDASSRAGGADFLMRVGDKKVTLNGATTTYRELIGEEQWNALMVTAQRSQFETDAKLNEQYRLKINSALNQEDPRTAWEMLQGIKAELDKVQPDEQMTPQREWLISAQEQVQNQMNAWTKAQAKALDDSMKSMNKLDVIDKQFQKRINGEWVSTDFKDMPVNENTGEFKHSDMVNYANKKLAEIDSMDIPDGAKDAMKLKYLQADSKDGAFRTAIGTMVTDAGQEWSAAVINGKLPERTPAMDALRRIRNADPQLIAALYPDQAELFLTMDMMDKQGIDPQVILDADRLTVKRSKEQRFEDDKAFESALNASKAPEIARMPASLRESARKIYDSVKYRSGNESMAMEQMTKFLKESTYTFTGDDVDGDTVGVIPKNMMQVNSDPKSWEQGRDILEEARKGIIASNPWITNKQLTMYSQGDSIYLMDTTGQVRVRYDKELLSKVWSENQKKLEEKAREKALADVNKRAPIVAATKAREAAAKRVREKRKQTPKFIYGRKE
notes: core protein gp15 of bacteriophage T7, as it stands in the mature virion; Eight-fold ring in the core of mature T7; source: T7 virions propagated in E. coli, purified (PEG precipitation, CsCl ultracentrifugation)
B3: adaptor protein gp11 (natural protein, bacteriophage T7, UniProt P03746 1-196, looked up)
chain: MRSYDMNVETAAELSAVNDILASIGEPPVSTLEGDANADAANARRILNKINRQIQSRGWTFNIEEGITLLPDVYSNLIVYSDDYLSLMSTSGQSIYVNRGGYVYDRTSQSDRFDSGITVNIIRLRDYDEMPECFRYWIVTKASRQFNNRFFGAPEVEGVLQEEEDEARRLCMEYEMDYGGYNMLDGDAFTSGLLTR
notes: adaptor protein gp11 of bacteriophage T7, as it stands in the virion; Native virion protein; source: T7 virions propagated in E. coli, purified (PEG precipitation, CsCl ultracentrifugation); copies: 12

In one data set the target is T1, nozzle protein gp12. Description: cryo-EM structure; DNA-ejected T7: purified mature T7 incubated with rough LPS (250 µg/mL) at 37°C for 3 h; entire particle asymmetric 8.2 Å; portal–tail complex 3.5 Å (six-fold). The following applies: both partners purified.
Data set [1] addresses T2, portal protein gp8. Description: cryo-EM structure; mature T7 virions, in situ; entire particle asymmetric 6.1 Å; local reconstructions of core complex 3 Å (four-fold), portal 2.5 Å (twelve-fold), portal–tail complex 2.7 Å (six-fold). The conditions noted are these: both partners purified.
The target in the next data set is T3, core protein gp14. Described as above. The conditions noted are these: both partners purified.
The data set “core protein gp15” deals with B2. The data set is described as above. The conditions noted are these: both partners purified.
In the next data set the target is T4, core protein gp16. Described as above. The conditions noted are these: both partners purified.
Data set [2] concerns the molecule itself. The data set is described as above.
The target in data set [3] is T2, portal protein gp8. As to the kind of experiment: cryo-EM structure; DNA-ejected T7: purified mature T7 incubated with rough LPS (250 µg/mL) at 37°C for 3 h; entire particle asymmetric 8.2 Å; portal–tail complex 3.5 Å (six-fold). The conditions noted are these: both partners purified.

In the case of B1, the binding result in the data set with nozzle protein gp12, with portal protein gp8 [1], with core protein gp14 and in the data set with core protein gp15 was “binds” in each case.
In general, stoichiometry N refers to a count of units in the complex or per binding partner. Regarding B2, the binding result in the data set with core protein gp16 is on record as “binds”. For the same molecule, the “stoichiometry N” value in data set [2] came to 8.
Consider B3, for which the binding result in the data set with portal protein gp8 [3] and with nozzle protein gp12 was “binds” in each case. In addition, the “stoichiometry N” value in data set [2] amounted to 12.
